Values belong to the binder of their own block, whether it stands above or below them.
Key:
Core_IIII-es_KEKK = target: T1, Core_IIII-es_KEKK; assay: two-hybrid library CCmax; settings: mean of both orientations;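 note: natural log of median RNA to DNA barcode read ratio; higher means stronger binding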
T1 chain: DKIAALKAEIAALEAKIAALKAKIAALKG

4H575-bA = target: T2, 4H575-bA; assay: two-hybrid library CCNG1;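 note: natural log of median RNA to DNA barcode read ratio; higher means stronger binding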
T2 chain: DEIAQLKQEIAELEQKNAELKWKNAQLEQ

4H2627-bA = target: T3, 4H2627-bA; assay: two-hybrid library CCNG1;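 note: natural log of median RNA to DNA barcode read ratio; higher means stronger binding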
T3 chain: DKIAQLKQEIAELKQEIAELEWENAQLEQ

4H797-bA = target: T4, 4H797-bA; assay: two-hybrid library CCNG1;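 note: natural log of median RNA to DNA barcode read ratio; higher means stronger binding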
T4 chain: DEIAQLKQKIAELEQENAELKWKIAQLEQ

4H3298-bA = target: T5, 4H3298-bA; assay: two-hybrid library CCNG1;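 note: natural log of median RNA to DNA barcode read ratio; higher means stronger binding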
T5 chain: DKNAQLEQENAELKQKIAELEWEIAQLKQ

4H3613-bA = target: T6, 4H3613-bA; assay: two-hybrid library CCNG1;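 note: natural log of median RNA to DNA barcode read ratio; higher means stronger binding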
T6 chain: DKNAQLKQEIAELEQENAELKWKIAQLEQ

4H591-bA = target: T7, 4H591-bA; assay: two-hybrid library CCNG1
T7 chain: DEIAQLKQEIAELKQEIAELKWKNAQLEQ

4H1158-bA = target: T8, 4H1158-bA; assay: two-hybrid library CCNG1
T8 chain: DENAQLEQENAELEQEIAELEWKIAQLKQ

P8SHb = target: T9, P8SHb; assay: two-hybrid library CCNG1
T9 chain: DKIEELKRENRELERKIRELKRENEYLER

4H3628-bA = target: T10, 4H3628-bA; assay: two-hybrid library CCNG1
T10 chain: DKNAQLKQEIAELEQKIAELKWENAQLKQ

4H2702-bA = target: T11, 4H2702-bA; assay: two-hybrid library CCNG1
T11 chain: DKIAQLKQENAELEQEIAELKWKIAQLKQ

4H918-bA = target: T12, 4H918-bA; assay: two-hybrid library CCNG1
T12 chain: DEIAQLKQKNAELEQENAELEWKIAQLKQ

4H953-bA = target: T13, 4H953-bA; assay: two-hybrid library CCNG1
T13 chain: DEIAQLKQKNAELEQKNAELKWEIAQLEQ

4H754-bA = target: T14, 4H754-bA; assay: two-hybrid library CCNG1
T14 chain: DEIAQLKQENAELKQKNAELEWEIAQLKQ

O6 = target: T15, O6; assay: two-hybrid library CCNG1
T15 chain: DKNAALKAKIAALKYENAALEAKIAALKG

4H1985-bA = target: T16, 4H1985-bA; assay: two-hybrid library CCNG1
T16 chain: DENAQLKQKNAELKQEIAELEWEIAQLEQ

4H683-bA = target: T17, 4H683-bA; assay: two-hybrid library CCNG1
T17 chain: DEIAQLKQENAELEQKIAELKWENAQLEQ

4H626-bA = target: T18, 4H626-bA; assay: two-hybrid library CCNG1
T18 chain: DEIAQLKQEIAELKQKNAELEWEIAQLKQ

4H4073-bA = target: T19, 4H4073-bA; assay: two-hybrid library CCNG1
T19 chain: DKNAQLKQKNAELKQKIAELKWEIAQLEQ

4H855-bA = target: T20, 4H855-bA; assay: two-hybrid library CCNG1
T20 chain: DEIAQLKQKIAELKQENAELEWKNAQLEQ

4H3112-bA = target: T21, 4H3112-bA; assay: two-hybrid library CCNG1
T21 chain: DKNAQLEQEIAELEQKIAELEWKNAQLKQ

4H3497-bA = target: T22, 4H3497-bA; assay: two-hybrid library CCNG1
T22 chain: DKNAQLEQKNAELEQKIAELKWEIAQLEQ

4H3277-bA = target: T23, 4H3277-bA; assay: two-hybrid library CCNG1
T23 chain: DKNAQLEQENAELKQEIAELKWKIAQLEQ

4H3175-bA = target: T24, 4H3175-bA; assay: two-hybrid library CCNG1
T24 chain: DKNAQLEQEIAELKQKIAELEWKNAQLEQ

4H1544-bA = target: T25, 4H1544-bA; assay: two-hybrid library CCNG1
T25 chain: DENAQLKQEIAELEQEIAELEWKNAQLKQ

4H1373-bA = target: T26, 4H1373-bA; assay: two-hybrid library CCNG1
T26 chain: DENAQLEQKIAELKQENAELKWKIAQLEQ

4H3462-bA = target: T27, 4H3462-bA; assay: two-hybrid library CCNG1
T27 chain: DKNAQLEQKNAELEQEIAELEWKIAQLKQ

4H112-bA = target: T28, 4H112-bA; assay: two-hybrid library CCNG1
T28 chain: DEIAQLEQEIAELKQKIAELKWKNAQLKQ

4H780-bA = target: T29, 4H780-bA; assay: two-hybrid library CCNG1
T29 chain: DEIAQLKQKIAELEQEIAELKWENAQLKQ

4H457-bA = target: T30, 4H457-bA; assay: two-hybrid library CCNG1
T30 chain: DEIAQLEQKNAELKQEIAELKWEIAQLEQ

4H3162-bA = target: T31, 4H3162-bA; assay: two-hybrid library CCNG1
T31 chain: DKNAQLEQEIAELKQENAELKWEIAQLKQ

4H1348-bA = target: T32, 4H1348-bA; assay: two-hybrid library CCNG1
T32 chain: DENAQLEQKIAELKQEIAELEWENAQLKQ

4H1831-bA = target: T33, 4H1831-bA; assay: two-hybrid library CCNG1
T33 chain: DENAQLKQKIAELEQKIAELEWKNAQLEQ

4H3427-bA = target: T34, 4H3427-bA; assay: two-hybrid library CCNG1
T34 chain: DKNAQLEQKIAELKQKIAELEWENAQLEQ

4H968-bA = target: T35, 4H968-bA; assay: two-hybrid library CCNG1
T35 chain: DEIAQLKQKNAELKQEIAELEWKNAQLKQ

4H1081-bA = target: T36, 4H1081-bA; assay: two-hybrid library CCNG1; settings: mean of both orientations
T36 chain: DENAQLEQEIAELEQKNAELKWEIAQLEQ

4H346-bA = target: T37, 4H346-bA; assay: two-hybrid library CCNG1
T37 chain: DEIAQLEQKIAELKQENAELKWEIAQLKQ

4H3010-bA = target: T38, 4H3010-bA; assay: two-hybrid library CCNG1
T38 chain: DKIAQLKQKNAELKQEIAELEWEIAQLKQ

4H2673-bA = target: T39, 4H2673-bA; assay: two-hybrid library CCNG1
T39 chain: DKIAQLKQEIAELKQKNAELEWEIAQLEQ

4H3926-bA = target: T40, 4H3926-bA; assay: two-hybrid library CCNG1; settings: mean of both orientations
T40 chain: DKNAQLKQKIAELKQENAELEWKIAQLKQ

4H170-bA = target: T41, 4H170-bA; assay: two-hybrid library CCNG1
T41 chain: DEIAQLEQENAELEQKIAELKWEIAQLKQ

4H118-bA = target: T42, 4H118-bA; assay: two-hybrid library CCNG1
T42 chain: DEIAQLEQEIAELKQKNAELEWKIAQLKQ

4H906-bA = target: T43, 4H906-bA; assay: two-hybrid library CCNG1
T43 chain: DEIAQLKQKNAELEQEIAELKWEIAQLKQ

4H1899-bA = target: T44, 4H1899-bA; assay: two-hybrid library CCNG1
T44 chain: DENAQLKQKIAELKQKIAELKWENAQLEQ

4H1710-bA = target: T45, 4H1710-bA; assay: two-hybrid library CCNG1
T45 chain: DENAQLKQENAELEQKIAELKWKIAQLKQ

4H2586-bA = target: T46, 4H2586-bA; assay: two-hybrid library CCNG1
T46 chain: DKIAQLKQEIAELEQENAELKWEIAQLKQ

Core_IIII-es_KKEE = target: T47, Core_IIII-es_KKEE; assay: two-hybrid library CCmax; settings: mean of both orientations
T47 chain: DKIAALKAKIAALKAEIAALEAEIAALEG

- interaction score (Core_IIII-es_KEKK): 1.78
Binder: DEIAALEAKIAALKAEIAALEAEIAALEG [Core_IIII-es_EKEE]

- interaction score (4H575-bA): -1.21
- interaction score (4H2627-bA): -0.693
- interaction score (4H797-bA): -1.17
- interaction score (4H3298-bA): -0.916
- interaction score (4H3613-bA): -0.495
- interaction score (4H591-bA): -0.855
- interaction score (4H1158-bA): -1.28
- interaction score (P8SHb): -1.25
- interaction score (4H3628-bA): -1.07
- interaction score (4H2702-bA): 0.457
- interaction score (4H918-bA): -0.671
- interaction score (4H953-bA): -1.23
- interaction score (4H754-bA): -0.461
- interaction score (O6): 1.04
- interaction score (4H1985-bA): -0.96
- interaction score (4H683-bA): -0.217
- interaction score (4H626-bA): -0.689
- interaction score (4H4073-bA): -0.497
- interaction score (4H855-bA): -0.154
- interaction score (4H3112-bA): -0.897
- interaction score (4H3497-bA): -1.1
- interaction score (4H3277-bA): -0.575
- interaction score (4H3175-bA): -1.47
- interaction score (4H1544-bA): -0.272
- interaction score (4H1373-bA): -0.306
- interaction score (4H3462-bA): -0.859
- interaction score (4H112-bA): -0.18
- interaction score (4H780-bA): -0.865
- interaction score (4H457-bA): -0.799
- interaction score (4H3162-bA): -0.581
- interaction score (4H1348-bA): -0.834
- interaction score (4H1831-bA): -0.839
- interaction score (4H3427-bA): -0.645
- interaction score (4H968-bA): -1.8
- interaction score (4H1081-bA): -1.09
- interaction score (4H346-bA): -0.753
- interaction score (4H3010-bA): -0.178
- interaction score (4H2673-bA): -0.717
- interaction score (4H3926-bA): 2.57
- interaction score (4H170-bA): -0.98
- interaction score (4H118-bA): -0.618
- interaction score (4H906-bA): -0.875
- interaction score (4H1899-bA): -0.763
- interaction score (4H1710-bA): -1.02
- interaction score (4H2586-bA): -1
Binder: DENAQLEQEIAELEQKNAELKWEIAQLEQ [4H1081-bA]

- interaction score (Core_IIII-es_KKEE): 1.78
Binder: DEIAALEAEIAALEAKIAALKAKIAALKG [Core_IIII-es_EEKK]

From publication PMC10397247
